Assay [1] concerns the target T1, human CD40 on cells (human, UniProt P25942 21-277). Description: cell-based or functional assay.
The target in assay [2] is T2, recombinant human CD40 (residues 21-192) fused to a 6×His-tag at the carboxy-terminus (human, UniProt P25942 21-192).
T2 construct: range 21-192; also called Human CD40-His; soluble, monomeric human CD40-His
Description: BLI, soluble monomeric human CD40-His. Here is the method: Dissociation constants (KD), on-rates (kon) and off-rates (koff) for the 10F12 chimeric mAb were determined by BLI using soluble, monomeric human CD40-His (Table 1).
(In BLI a coated tip is dipped into the sample, and binding shifts an interference pattern.)

The target of assay [3] is T1, human CD40 on cells. Description: cell-based or functional assay. The source holds these as a separate data set.
For assay [4], the target named is T2, recombinant human CD40 (residues …). Description: BLI, Octet Red96e. How it is done:
(§1) Antibody TDI-Y-003 produced in stable CHO pools was tested in a series of binding and functional assays in vitro as well as an in vivo study in a disease-relevant animal model. Affinity to human CD40 was measured by BLI using an Octet Red96e. […] The slower off-rate seen for this interaction is likely a result of the avidity between the bivalent TDI-Y-003 IgG and the dimeric CD40-Fc.

Assay [5] addresses T3, Cyno CD40-His (cynomolgus monkey, UniProt G7PG38 21-192).
T3 construct: also called monomeric cynomolgus monkey CD40; not shown: His tag
Description: BLI, Octet Red96e. Here is the method:
(§2) Affinity to cynomolgus monkey and mouse CD40 was measured by BLI using an Octet Red96e.

Assay [6] concerns the target T4, Mouse CD40-His (mouse, UniProt P27512 24-192, limits assumed).
T4 construct: also called monomeric mouse CD40; not shown: His tag
T4 sequence (looked up): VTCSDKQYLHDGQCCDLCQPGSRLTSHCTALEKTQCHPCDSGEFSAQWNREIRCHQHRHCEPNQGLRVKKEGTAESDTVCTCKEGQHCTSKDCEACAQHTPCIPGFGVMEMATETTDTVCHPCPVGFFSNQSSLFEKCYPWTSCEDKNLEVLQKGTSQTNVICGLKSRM
Description: BLI, Octet Red96e. How it is done: as §2

The target of assay [7] is T1, human CD40 on cells. Description: cell-based or functional assay. The source holds these as a separate data set.
Assay [8] has as its target T1, human CD40 on cells. Description: flow cytometry, Raji cells (endogenous CD40). Here is the method: (§3) To assess the binding of TDI-Y-003 to cell surface-bound CD40, HEK293 overexpressing CD40 as well as Raji cells (B-lymphocytes) and primary human dendritic cells, which express endogenous CD40, were used. TDI-Y-003 bound HEK293-CD40 and Raji cells with EC₅₀ values in the sub-nanomolar range at 0.44 and 0.77 nM, respectively (Table 5).
A general note: In flow cytometry, cells or beads pass a laser one at a time.

In assay [9] the target is T1, human CD40 on cells. Description: flow cytometry, HEK293 cells overexpressing CD40. How it is done: as §3
The target of assay [10] is T1, human CD40 on cells. Description: flow cytometry, primary human dendritic cells (endogenous CD40). Here is the method:
as §3

Assay [11] deals with T5, human CD40-Fc (human, UniProt P25942 21-192).
T5 construct: range 21-192; also called dimeric CD40-Fc; not shown: human Fc fragment fused to the carboxy-terminus
T5 sequence (P25942 21-192): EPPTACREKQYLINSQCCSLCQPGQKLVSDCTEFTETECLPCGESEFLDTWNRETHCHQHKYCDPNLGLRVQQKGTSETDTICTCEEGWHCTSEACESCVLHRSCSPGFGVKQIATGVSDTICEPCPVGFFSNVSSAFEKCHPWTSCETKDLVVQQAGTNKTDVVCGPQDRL
Description: BLI, Octet Red96e; avidity between bivalent IgG and dimeric CD40-Fc. How it is done: as §1

The target of assay [12] is T1, human CD40 on cells. Description: flow cytometry competition on HEK293 cells stably expressing CD40; competitor HA-tagged CD40 ligand detected with PE anti-HA. How it is done: FIG. 4. Competitive binding of TDI-Y-003 with CD40 ligand to CD40 stably expressed on HEK293 cells. HEK293 cells stably expressing CD40 were co-incubated with either TDI-Y-003 or isotype control antibody and HA-tagged CD40 ligand. CD40 ligand binding was assessed by flow cytometry with a PE labeled anti-HA antibody. Results are normalized to secondary antibody only controls (MFI ratio).
Competitive binding of TDI-Y-003 with CD40L for binding to CD40 was assessed using HEK293 cells stably expressing CD40. Cells were co-incubated with HA tagged CD40 ligand and TDI-Y-003 or isotype control at the indicated concentrations and analyzed for CD40 ligand binding by flow cytometry (FIG. 4).

Broadly, the koff is a measure of how fast the partners let go of each other. For orientation: kon means the second-order rate constant of association. Usually EC50 stands for the concentration giving half of the maximal effect. Low values mean greater potency, high ones weaker potency. As a reminder, the IC50 is the concentration at which inhibition is half-maximal.

T1 sequence (P25942 21-277): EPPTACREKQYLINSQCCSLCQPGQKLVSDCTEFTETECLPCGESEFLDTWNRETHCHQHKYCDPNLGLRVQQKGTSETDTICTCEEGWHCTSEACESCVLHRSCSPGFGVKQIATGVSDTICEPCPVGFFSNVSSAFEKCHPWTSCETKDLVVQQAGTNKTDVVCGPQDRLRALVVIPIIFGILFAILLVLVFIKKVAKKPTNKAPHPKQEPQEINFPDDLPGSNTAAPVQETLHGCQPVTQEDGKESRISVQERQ
T2 sequence (P25942 other isoform, or with tags, fused parts or gaps limits assumed): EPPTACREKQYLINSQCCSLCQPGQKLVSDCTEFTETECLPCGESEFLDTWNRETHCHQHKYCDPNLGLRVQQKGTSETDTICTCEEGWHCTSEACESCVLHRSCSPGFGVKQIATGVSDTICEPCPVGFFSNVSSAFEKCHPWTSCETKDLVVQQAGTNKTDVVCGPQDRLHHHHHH

B1: 10F12 chimeric mAb, human IgG1 (antibody, V domains shown)
VH: QVQLKQSGPGLVQPSQSLSITCTVSGFSLTTYGLHWVRQSPGKGLEWLGVIWRGGNTDYNAAFMSRLSITKDNSKSQVFFKMNSLQADDTAIYYCAKNSYYGNGGHAMDYWGQGTSVTVSS
VL: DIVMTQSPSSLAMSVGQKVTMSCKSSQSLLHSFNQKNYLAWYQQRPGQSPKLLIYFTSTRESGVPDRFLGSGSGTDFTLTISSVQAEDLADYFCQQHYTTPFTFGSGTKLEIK
notes: Mouse variable regions fused to human constant regions of the IgG1 subclass; Expressed in HEK293 cells; also called 10-F12 (Human IgG1)
In the case of B1, in [1], the “EC50 for agonist activity (HEK293-CD40 NF-κB-Luciferase reporter system)” value (from here on “EC50 for agonist activity”) came out at 0.333 nM and the “Max Stim [% CD40L] (HEK293-CD40 NF-κB-Luciferase reporter system)” value (“Max Stim [% CD40L]” below) turned out to be 63.4 % CD40L. Besides, in [2], the Kd amounted to 27.1 nM, the koff turned out to be 0.0071 s⁻¹ and the kon was found to be 262000 M⁻¹ s⁻¹.

B2: 10F12 chimeric mAb, human IgG2 (antibody, V domains shown)
VH: QVQLKQSGPGLVQPSQSLSITCTVSGFSLTTYGLHWVRQSPGKGLEWLGVIWRGGNTDYNAAFMSRLSITKDNSKSQVFFKMNSLQADDTAIYYCAKNSYYGNGGHAMDYWGQGTSVTVSS
VL: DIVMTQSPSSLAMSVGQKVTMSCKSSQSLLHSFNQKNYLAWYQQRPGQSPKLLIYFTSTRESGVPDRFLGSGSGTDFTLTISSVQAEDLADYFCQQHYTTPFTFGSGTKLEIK
notes: Mouse variable regions fused to human constant regions of the IgG2 subclass; Expressed in HEK293 cells; also called 10-F12 (Human IgG2); 10-F12 hIgG2
For B2, in assay [1], the “EC50 for agonist activity” value worked out at 0.01 nM and the “Max Stim [% CD40L]” value was 96.5 % CD40L. For the same molecule, in assay [2], the Kd stood at 26.5 nM, the koff was 0.00911 s⁻¹ and the kon was 344000 M⁻¹ s⁻¹.

B3: human CD40L (ligand, UniProt P29965 113-261, looked up)
chain: MQKGDQNPQIAAHVISEASSKTTSVLQWAEKGYYTMSNNLVTLENGKQLTVKRQGLYYIYAQVTFCSNREASSQAPFIASLCLKSPGRFERILLRAANTHSSAKPCGQQSIHLGGVFELQPGASVFVNVTDPSQVSHGTGFTSFGLLKL
Regarding B3, in assay [1], the “EC50 for agonist activity” value came out at 3.58 nM and the “Max Stim [% CD40L]” value was 100 % CD40L. Besides, in [3], the “EC50 in agonist assay (HEK293 NF-kB-luciferase reporter line stably expressing CD40)” value (“EC50 in agonist assay” below) stood at 9.62 nM.

B4: TDI-Y-003 F(ab′)2 fragment generated by pepsin cleavage (other)
heavy: QVQLQESGPGLVKPSETLSLTCTVSGFSLTTYGLHWIRQPPGKGLEWIGVIWRGGNTDYNPSLKSRVTISKDTSKNQVSLKLSSVTAADTAVYYCAKNSYYGQGGHAMDYWGQGTLVTVSSASTKGPSVFPLAPCSRSTSESTAALGCLVKDYFPEPVTVSWNSGALTSGVHTFPAVLQSSGLYSLSSVVTVPSSNFGTQTYTCNVDHKPSNTKVDKTVERKCCVECPPCPAPPVAGPSVFLFPPKPKDTLMISRTPEVTCVVVDVSHEDPEVQFNWYVDGVEVHNAKTKPREEQFNSTFRVVSVLTVVHQDWLNGKEYKCKVSNKGLPAPIEKTISKTKGQPREPQVYTLPPSREEMTKNQVSLTCLVKGFYPSDIAVEWESNGQPENNYKTTPPMLDSDGSFFLYSKLTVDKSRWQQGNVFSCSVMHEALHNHYTQKSLSLSPG
light: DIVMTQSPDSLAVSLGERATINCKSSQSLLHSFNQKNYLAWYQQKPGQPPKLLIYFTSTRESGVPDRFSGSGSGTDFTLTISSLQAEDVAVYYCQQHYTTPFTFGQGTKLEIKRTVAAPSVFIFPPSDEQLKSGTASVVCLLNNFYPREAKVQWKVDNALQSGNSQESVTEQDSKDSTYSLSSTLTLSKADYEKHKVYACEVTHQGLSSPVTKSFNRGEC
For the molecule B4, the “EC50 in agonist assay” value in [3] turned out to be 2.14 nM.

B5: TDI-Y-003 (antibody, human IgG2, kappa, V domains shown)
VH: QVQLQESGPGLVKPSETLSLTCTVSGFSLTTYGLHWIRQPPGKGLEWIGVIWRGGNTDYNPSLKSRVTISKDTSKNQVSLKLSSVTAADTAVYYCAKNSYYGQGGHAMDYWGQGTLVTVSS
VL: DIVMTQSPDSLAVSLGERATINCKSSQSLLHSFNQKNYLAWYQQKPGQPPKLLIYFTSTRESGVPDRFSGSGSGTDFTLTISSLQAEDVAVYYCQQHYTTPFTFGQGTKLEIKR
notes: also called Hu10F12 (N103Q); hu10F12 (N103Q)
With B5, in assay [4], the Kd is 40 nM, the koff is 0.048 s⁻¹ and the kon is 1.2e+06 M⁻¹ s⁻¹. In assay [5], this molecule returned a Kd of 48 nM, a koff of 0.0471 s⁻¹ and an on-rate (kon) of 977000 M⁻¹ s⁻¹. Besides, the binding result in assay [6] is listed as “no binding (tested: 1.7 µM)”. Moreover, in [3], the “EC50 in agonist assay” value stood at 0.64 nM. Further, in assay [7], the “EC50 in DC activation assay, marker CD80” value turned out to be 2 nM; the “EC50 in DC activation assay, marker CD86” value worked out at 5.5 nM; the “EC50 in DC activation assay, marker HLA-ABC” value turned out to be 2.5 nM; the “EC50 in DC activation assay, marker HLA-DR” value is 1.7 nM. In assay [8], this molecule registered a half-maximal effective concentration (EC50) of 0.77 nM. In [9], this molecule gave a concentration for a half-maximal effect (EC50) of 0.44 nM. This molecule also showed an EC50 in [10] of 3.85 nM. In assay [11], this molecule displayed a Kd of 1.2 nM, a koff of 0.0013 s⁻¹ and a kon of 1e+06 M⁻¹ s⁻¹. Moreover, the half-maximal inhibitory concentration (IC50) in assay [12] worked out at 1.07 nM.

B6: TDI-Y-003 Fab fragment generated by papain cleavage (Fab, V domains shown)
VH: QVQLQESGPGLVKPSETLSLTCTVSGFSLTTYGLHWIRQPPGKGLEWIGVIWRGGNTDYNPSLKSRVTISKDTSKNQVSLKLSSVTAADTAVYYCAKNSYYGQGGHAMDYWGQGTLVTVSS
VL: DIVMTQSPDSLAVSLGERATINCKSSQSLLHSFNQKNYLAWYQQKPGQPPKLLIYFTSTRESGVPDRFSGSGSGTDFTLTISSLQAEDVAVYYCQQHYTTPFTFGQGTKLEIKR
As for B6, the “EC50 in agonist assay” value in [3] is 112 nM.

For the origin of these results see patent US20240109973A1 (Memorial Sloan Kettering, published 2024).
